For assay [1], the target named is human OX40 on Jurkat-NF-Kb luc-hOX40 cells (human) (UniProt P43489). The experiment in a line: cell-based or functional assay.
The target in assay [2] is T1, human OX40 on Jurkat-NF-Kb luc-hOX40 cells (human, UniProt P43489 29-277).
T1 sequence (looked up): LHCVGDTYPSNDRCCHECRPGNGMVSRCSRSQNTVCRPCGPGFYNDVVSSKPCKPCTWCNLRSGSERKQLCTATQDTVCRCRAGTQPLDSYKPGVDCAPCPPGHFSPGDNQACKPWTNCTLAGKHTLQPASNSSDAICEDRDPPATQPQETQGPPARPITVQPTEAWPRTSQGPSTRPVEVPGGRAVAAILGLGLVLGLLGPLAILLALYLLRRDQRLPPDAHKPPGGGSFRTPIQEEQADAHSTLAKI
Put plainly: cell-based or functional assay.

Assay [3] deals with T2, human OX40-His protein (Sino Biological 10481-H08H) (human, UniProt P43489 29-216).
T2 construct: Bought protein, used as the analyte in Biacore; not shown: His tag
T2 sequence (looked up): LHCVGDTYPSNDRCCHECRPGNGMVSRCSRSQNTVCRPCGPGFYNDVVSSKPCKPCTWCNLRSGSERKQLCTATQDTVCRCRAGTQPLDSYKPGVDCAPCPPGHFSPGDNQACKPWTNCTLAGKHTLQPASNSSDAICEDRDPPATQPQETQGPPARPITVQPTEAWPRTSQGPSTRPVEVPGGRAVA
Put plainly: SPR, Biacore T200; antibody amine-coupled to a CM5 chip, human OX40-His as analyte, 1:1 Langmuir model.

The target of assay [4] is T3, human OX40-Fc, biotin-labelled (OX40 Leu 29-Ala 216, Accession NP_003318, fused with Fc); Acro Biosystems … (human, UniProt P43489 29-216, labelled with biotin (sites not given)).
T3 construct: range 29-216; Bought from Acro Biosystems and expressed in HEK293; also called human Bio-OX40-FC; not shown: Fc tag of the bought protein
T3 sequence (looked up): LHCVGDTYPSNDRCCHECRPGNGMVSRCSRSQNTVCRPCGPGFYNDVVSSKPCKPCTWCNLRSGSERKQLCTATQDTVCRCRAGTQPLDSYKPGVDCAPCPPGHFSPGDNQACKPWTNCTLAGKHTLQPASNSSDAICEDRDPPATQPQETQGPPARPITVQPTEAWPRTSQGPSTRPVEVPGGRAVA
Put plainly: blocking ELISA: OX40 ligand coated on the plate, serially diluted 2G3 pre-incubated with biotinylated human OX40-Fc, SA-HRP detection; competitor OX40L. Background: An ELISA detects its analyte on a solid surface through an enzyme-linked reagent.

B1: chimeric antibody Ch2G3 (m2G3 variable regions with human IgG1 and human Kappa constant regions) (antibody, from another filing, V domains shown)
VH: QVQLKESGPGLVASSQSLSITCTVSGFSLSRYSVHWVRQPPGKGLEWLGMIWDGGNTDYNSALKSRLSISKDNSKSQVFLKMNSLQTDDTAMYYCARNPLYFSYAMDYWGQGTSVTVSS
VL: DIQMTQSTSSLSASLGDRVTISCRASQDISNYLNWYQQKPDGTVKLLIIYTSRLQSGVPSRFSGSGSGTDYSLTISNLEQEDIATYFCQQVNTFPFTFGSGTKLEIK
The molecule B1 had an EC50(nM), luciferase reporter gene (RLU) in Jurkat-NF-Kb luc-hOX40 cells mixed with Raji cells on an anti-CD3 coated plate in assay [1] of 0.637 nM.

B2: 2G3 (humanized anti-OX40 antibody, hu2G3 VH1.1 + hu2G3 VL1) (antibody, human IgG1, kappa, V domains shown)
VH: QVQLQESGPGLVKPSETLSLTCTVSGYSISRYSVHWVRQPPGKGLEWIGMIWDGGNTDYNAALKSRFTISRDNAKNTLYLQMNSLRAEDTAVYYCARNPLYFSYAMDYWGQGTLVTVSS
VL: DIQMTQSPSSLSASVGDRVTITCRASQDISNYLNWYQQKPDQSPKLLIIYTSRLQSGVPSRFSGSGSGTDYTLTISSLQPEDFATYYCQQVNTFPFTFGQGTKLEIKR
notes: Format is IgG1/kappa; also called drug A; humanized 2G3 antibody
In the case of B2, in assay [2], the “EC50(nM), luciferase reporter gene (RLU) in Jurkat-NF-Kb luc-hOX40 cells mixed with Raji cells on an anti-CD3 coated plate” value stood at 2.29 nM. In assay [3], this molecule came in with a Kd of 4.63 nM, an off-rate constant (koff) of 0.00202 s⁻¹ and a kon of 437000 M⁻¹ s⁻¹. Also, in assay [4], the half-maximal inhibitory concentration (IC50) was 1.88 nM.

What is called Kd is the equilibrium constant for the complex coming apart. Higher therefore signals a looser complex. By koff is commonly meant a measure of how fast the partners let go of each other. A higher koff goes with fast dissociation. For orientation: kon means a measure of how fast the partners come together. A low value points to slow association. In general, IC50 refers to the concentration that gives 50% inhibition. A higher IC50 goes with weaker potency in that assay.

Values taken from patent WO2020259667A1 (dated 2020).
